Experimental data: patent US20230190653A1, “METHOD FOR REDUCING OFF-TARGET UPTAKE OR ACCUMULATION OF AGENTS” (The Regents of the University of Colorado, A Body Corporate, priority 2021, published 2023)
Blank lines part the entries; values can stand above or below the molecule they belong to.

Legend:
[1] = Particle size measurement (Malvern Zetasizer / dynamic light scattering); assay type: physicochemical; conditions: approximately 150 kD
Experimental: Lipids were dissolved in chloroform and used to prepare liposomes comprised of sphingosine:cholesterol:DAPC at a mole ratio of 3:2:5 in water as previously described. Briefly, the lipid mixture was dried with nitrogen gas to achieve a thin film that was incubated under vacuum overnight before rehydration with distilled water and sonication to achieve clarity (1-2 min). Lactosylceramide or PEG-ceramide were included in the chloroform-lipid mixture and incorporated into liposomes at a 5% mole ratio as previously described. […] The diameters of these preparations were 237.9±7.5 (lactose) and 273.4±10.4 (PEG) nm as reported previously.
Sphingosine, cholesterol, 1,2-diarachidoyl-sn-glycero-3-phosphocholine (DAPC), and C16-PEG750-Ceramide were purchased from Avanti® Polar Lipids (Alabaster, Ala.) and used to prepare liposomes at a 3:2:4.5:0.5 mole ratio (respectively) as previously described. The liposomes preparations have an average diameter of 135 nm, a PDI of 0.137, and were prepared in 5% dextrose to adjust the tonicity of the injection solution. […] A Malvern Zetasizer Nano-ZS was used for all size measurements.
FITC-dextran was chosen for these studies since it is commonly used to quantify endothelial and epithelial cell barrier permeability.

[2] = Direct injection of IFN-γ into tumors, persistence of cytokine levels; assay type: in vivo; conditions: preliminary, data not shown
Excerpt: In contrast to inflammatory cytokines (e.g., TNF-α, IFN-γ, IFN-α, IFN-β) that increase vascular permeability, IFN-λ works specifically on the endothelial/epithelial cells to strengthen barrier integrity and prevent viral invasion. […] Ultimately, the lack of a tightening response in the tumor epithelium allows nanoparticles unaltered access to the tumor upon repeat administration.

[3] = system: IFNLR1 (interferon lambda receptor 1) gene expression; assay: IFNLR1 gene expression by RT-qPCR in primary human liver epithelial cells; assay type: cell-based; conditions: 24 hours treatment
Experimental: (§1) Interferon Lambda Receptor 1 (IFNλR1) mRNA Expression Quantification by Reverse Transcription-Polymerase Chain Reaction (RT-qPCR): Human Lung Microvascular Endothelial Cells (540-05A) (HLMVECs) purchased from Sigma-Aldrich® (Burlington, Mass.) were cultured and left untreated or treated with 100 ng/mL recombinant human IL-29 (R&D Systems® 1598-IL-025) or 100 ng/mL IL-28A/B (R&D Systems® 8417-IL-025/5259-IL-025) for 24 hours. […] After 24 hours, using TaqMan™ Fast Advanced Cells-to-CT™ kit purchased from Invitrogen™ (Waltham, Mass.), cells were collected according to manufacturer recommendations and IFNλR1 expression was quantified. PCR assay ID Hs00417120_ml (ThermoFisher Scientific™, Agawam, M A) was used to quantify IFNλR1 gene expression and PCR assay ID Hs03928985_g1 (ThermoFisher Scientific™, Agawam, M A) was used to quantify reference gene RNA18S5 expression.
(§2) To test the hypothesis that microvascular endothelial cells and liver epithelial cells respond to IFN-λ, real-time quantitative polymerase chain reaction (RT-qPCR) analysis was used to determine Interferon Lambda Receptor 1 (IFN λR1) gene expression in primary Human Lung Microvascular Endothelial Cells and primary Human Liver Epithelial Cells (TABLES 4 and 5). […] However, liver epithelial cells do express IFN λR1 and show an increase in IFN λR1 gene expression in response to IFN-λ and lipoplex treatment.

IFNLR1 gene expression = IFNLR1 gene expression by RT-qPCR in primary human lung microvascular endothelial cells; assay type: cell-based; conditions: 24 hours treatment, 100 ng/mL
Experimental: as §1, §2

CT26 tumor-bearing mice = assay: Doxil accumulation in organs and tumor after IFN-λ pre-treatment; assay type: in vivo, Balb/c mice
Excerpt: Tumor Bearing Experiments: Prior to treatment, female immunocompetent Balb/c mice 6-10 weeks old were acquired from Jackson labs (Bar Harbor, Me.) and allowed to acclimate for one week. The mice were then inoculated in the right flank with approximately 1 million CT26 murine colon carcinoma cells (ATCC #CRL-2638). Tumors were allowed to grow for approximately 7 days or until tumor size reached at least 100 mm^3. […] Twenty-four hours after the dextran/Doxil® injections, animals were euthanized, and organs collected for dextran/drug accumulation analysis.
A standard curve of fluorescence for doxorubicin was determined through fluorescence measurements of a serially diluted stock solution of the Doxil® in 90% isopropyl alcohol (IPA) acidified with HCl to a final concentration of 0.075 M. Fluorescence measurements were conducted in a CellStar™ μClear™ 96-Well, Cell Culture-Treated, Flat-Bottom Microplate from Greiner Bio-One™ (Monroe, N.C.) at an excitation of 470 nm and emission of 595 nm using a Molecular Devices (San Jose, Calif.) SpectraMax® M5. […] The equation from the resulting standard curve of fluorescence from each specific organ was used to calculate the total amount of doxorubicin extracted from a corresponding Doxil® treated organ.
Organs collected from animals were immediately flash-frozen in liquid nitrogen and stored at −80° C. until analysis. […] Doxorubicin fluorescence of the extracted solution was then measured, and total doxorubicin accumulation was then calculated using the doxorubicin fluorescence standard curves described above. […]
To assess the effects of IFN-λ pre-treatment on Doxil® accumulation, mice were intravenously injected with either 100 μL of 1×PBS or 1 μg of IFN-λ in 100 μL 1×PBS. […] After an additional 24 hours following Doxil administration, tissues were harvested from experimental mice and the total Doxil accumulation in tissues was determined using the extraction method and standard curves described above. […]

hydrodynamic diameter [1]: approximately 100 nm
Molecule: FITC-dextran

Molecule: IFN-γ: interferon gamma injected directly into tumors
time cytokine levels are maintained in the tumor [2]: at least 4 h

B1: IL29: recombinant human IL-29 (R&D Systems 1598-IL-025) (protein, UniProt Q8IU54 20-200, looked up)
Interferon lambda-1: GPVPTSKPTTTGKGCHIGRFKSLSPQELASFKKARDALEESLKLKNWSCSSPVFPGNWDLRLLQVRERPVALEAELALTLKVLEAAAGPALEDVLDQPLHTLHHILSQLQACIQPQPTAGPRPRGRLHHWLHRLQEAPKKESAGCLEASVTFNLFRLLTRDLKYVADGNLCLRTSTHPEST
ΔΔCt ([3]; vs untreated): −1.092
2^-ΔΔCt (Relative fold-change compared to untreated) ([3]; 100 ng/mL cytokine or 1 μg/mL lipoplexes): 2.132
ΔCt mean ([3]; 100 ng/mL cytokine or 1 μg/mL lipoplexes, reference RNA18S5): 19.476
IFN λR1 expression in endothelial cells (IFNLR1 gene expression): no expression detected
ΔCt mean (IFNLR1 gene expression): No Amplification

B2: IFN-λ: recombinant mouse IFN-λ2 (R&D Systems, 4635-ML-025/CF) (protein, UniProt Q4VK74 20-193, looked up)
Interferon lambda-2: DPVPRATRLPVEAKDCHIAQFKSLSPKELQAFKKAKDAIEKRLLEKDLRCSSHLFPRAWDLKQLQVQERPKALQAEVALTLKVWENMTDSALATILGQPLHTLSHIHSQLQTCTQLQATAEPRSPSRRLSRWLHRLQEAQSKETPGCLEASVTSNLFRLLTRDLKCVANGDQCV
Doxil accumulation in liver, spleen vs PBS pretreatment (CT26 tumor-bearing mice; 1 μg IFN-λ iv 24 h before 10 mg/kg Doxil): reduction
Doxil accumulation in the skin, kidney, lungs, and heart vs PBS pretreatment (CT26 tumor-bearing mice; 1 μg IFN-λ iv 24 h before 10 mg/kg Doxil, tissues 24 h later): significantly reduces
Doxil accumulation in tumor and plasma vs PBS pretreatment (CT26 tumor-bearing mice; not statistically significant): increase
